{"source": "a protein production outcome set (Wang et al. 2014)"}
{"assay": "label from the status in PepcDB records"}
{"sequence": "MSKVRIAIIGNGMVGHRFIEELLDKAPAGQFDITVFCEEPRIAYDRVHLSSYFSHHTAEELSLVREGFYEKHGVKVLVGERAITINRQEKVIHSSAGRTVFYDKLIMATGSYPWIPPIKGAETQDCFVYRTIEDLNAIESCARRSKRGAVVGGGLLGLEAAGALKNLGVETHVIEFAPMLMAEQLDQMGGEQLRRKIESMGVKVHTSKNTKEIVQQGTEARKTMHFADGSELQVDFIVFSTGIRPRDKLATQCGLAVAQRGGIMVNDSCQTSDPDIYAIGECASWNNRVYGLVAPGYKMAQVAVDHLLGSENSFTGADLSAKLKLLGVDVGGIGDAHGRTPGARSYVYLDESKEVYKRLIVSADNKTLLGAVLVGDTSDYGNLLQLVLNAIELPENPDSLILPAHAGSGKPSIGVDKLPDSAQICSCFDVSKGDLIAAINKGCHTVAALKAETKAGTGCGGCIPLVTQVLNAELAKQGIEVNNNLCEHFAYSRQELFHLIRVEGIKTFDELLEKHGQGYGCEVCKPTVGSLLASCWNEYILKPQHTPLQDSNDNFLANIQKDGTYSVIPRSAGGEITPEGLVAVGRIAREFNLYTKITGSQRIGLFGAQKDDLPEIWRQLIEAGFETGHAYAKALRMAKTCVGSTWCRYGVGDSVGFGVELENRYKGIRTPHKMKFGVSGCTRECAEAQGKDVGIIATEKGWNLYVCGNGGMKPRHADLLAADLDRETLIKYLDRFMMFYIRTADKLTRTAPWLDNMEGGIDYLRSVIIDDKLGLNDHLEEELARLRAAFACEWTETVNNPAAQTRFKHFINSDQRDPNVQVVPERDQHRPATPYERIPVTLVEEKA", "protein production": "not failed"}
{"sequence": "MSKVRVAGFSVSVDGFGAGPEQSLNDPLGKRGPEMFQWFFHTRTFRAMMGKDDGSTGIDEDYASRAMANFGAFILGRNMFGPIRGEWPDDAWKGWWGPNPPYHAPTYVLTHYPREPLVMEGGTTFHFVTGGIHQALDQAKAAAGDKDVKIGGGVATVRQYLQAGLIDELHFAVSPVVLGKGEAMFAGIDLPALDFRVTEHAASEKATHIVLAKLEHHHHHH", "protein production": "failed"}
{"sequence": "MSLAEKIKVLIVDDQVTSRLLLGDALQQLGFKQITAAGDGEQGMKIMAQNPHHLVISDFNMPKMDGLGLLQAVRANPATKKAAFIILTAQGDRALVQKAAALGANNVLAKPFTIEKMKAAIEAVFGALK", "protein production": "not failed"}
{"sequence": "MSLAISITMETFYSLYPAVKHLHLTLIAVSVLFFVVRFVLHLRQSALMGKKVFKVAPHVIDTFLLLSGLVLCFMIKQYPFVDPWLTEKIGAVVAYIALGVIAIKANRNKLFKVFAFLGAIGWLVYAAKLAHFKQAVLLG", "protein production": "failed"}
{"sequence": "MSLALQYFKALSDETRLRLIHVLNRHELSVNELVSILEMGQSRVSRHLKILTGAGLLTSRRDGLWVFYSAAAEGDGRAFLDAVTPFVTTDMVLQADLDMAQKIIEERALKTRQFFNAIAEDWDELNREVLGGFDLAGAVAEAMPQCETAVDLGCGTGSVIERMLQRSQQVIGVDGSPRMLELARRRFVEGAERVSLRIGELDHLPLRDGEADFASINMVLHHLSDPGVALGEIRRVLRLGGQLMVTDFDRHDNERMRSDYGDRWLGFEGVQLEGLLREAGFTVRECRRQGVAKGLALHLMLAEKTQQ", "protein production": "failed"}
{"sequence": "MSLANQTTKTLGLVMPSSASKAFQNPFFPEVIRGISSFAHVEGYALYMSTGETEEEIFNGVVKMVQGRQIGGIILLYSRENDRIIQYLHEQNFPFVLIGKPYDRKDEITYVDNDNYTAAREVAEYLISLGHKQIAFIGGGSDLLVTRDRLAGMSDALKLADIVLPKEYILHFDFSRESGQQAVEELMGLQQPPTAIMATDDLIGLGVLSALSKKGFVVPKDVSIVSFNNALLSEIASPPLSTVDVNIYQLGYEAAKALVDKVENAESTAKCIIIPHKLLKRQTCEGHHHHHH", "protein production": "not failed"}
{"sequence": "MSLANRIRLHIWGDYACFTRPEMKVERVSYDVITPSAARGILSAIHWKPAINWVIDKIYVLKPIRFESVRRNELGAKISESKVSGAMKRKSVADLYTVIEDDRQQRAATVLKDVAYVIEAHAVMTSKAGVDENTTKHIEMFKRRALKGQCFQQPCMGVREFPAHFALIDDNDPLPLSQLSESEFNRDLGWMLHDIDFEHGNTPHFFRAELKNGVIDVPPFYAEEVKREGHHHHHH", "protein production": "not failed"}
{"sequence": "MSLAQADGIAFRELSFPEALKRAEVEDKLLFVDCFTTWCGPCKRLSKVVFKDSLVADYFNRHFVNLKMDMEKGEGVELRKKYGVHAYPTLLFINSSGEVVYRLVGAEDAPELLKKVKLGVESEGHHHHHH", "protein production": "not failed"}
{"sequence": "MSLCRLARKNIRTFATKRMKQFMWIAMSIMILFFMISLQFNEGAILKVGDAFVFQMYFYTLFIVLIFICIFTTYKMMYSLLLVRREEFTSYVAENIKRKEVLCLLCQEQLFIYGAAFVFGLVNGMLFLKLFTIIFIRIAGIQGINSAPITIYAIVVVSIIMIVILLLSMVQCFRFVQSLQDKNSLHFKKKA", "protein production": "failed"}
{"sequence": "MSLDFWLYKQAQQNGHHIAITDGQESYTYQNLYCEASLLAKRLKAYQQSRVGLYIDNSIQSIILIHACWLANIEIAMINTRLTPNEMTNQMRSIDVQLIFCTLPLELRGFQIVSLDDIEFAGRDITTNGLLDNTMGIQYDTSNETVVPKESPSNILNTSFNLDDIASIMFTSGTTGPQKAVPQTFRNHYASAIGCKESLGFDRDTNWLSVLPIYHISGLSVLLRAVIEGFTVRIVDKFNAEQILTMIKNERITHISLVPQTLNWLMQQGLHEPYNLQKILLGGAKLSATMIETALQYNLPIYNSFGMTETCSQFLTATPEMLHARPDTVGMPSANVDVKIKNPNKEGHGELMIKGANVMNGYLYPTDLTGTFENGYFNTGDIAEIDHEGYVMIYDRRKDLIISGGENIYPYQIETVAKQFPGISDAVCVGHPDDTWGQVPKLYFVSESDISKAQLIAYLSKHLAKYKVPKHFEKVDTLPYTSTGKLQRNKLYREGHHHHHH", "protein production": "not failed"}
{"sequence": "MSLDKKLMPVPDGHPDVFDREWPLRVGDIDRAGRLRLDAACRHIQDIGQDQLREMGFEETHPLWIVRRTMVDLIRPIEFGDMLRCRRWCSGTSNRWCEMRVRVDGRKGGLIESEAFWIHVNRETEMPARIADDFLAGLHRTTSVDRLRWKGYLKPGSRDDASEIHEFPVRVTDIDLFDHMNNAVYWSVIEDYLASHAELLRGPLRVTIEHEAPVALGDKLEIISHVHPAGSTEIFGPGLVDRAVTTLTYVVGDEPKAVASLFNL", "protein production": "failed"}
{"sequence": "MSLDNLDVICIGAAIVDIPLQPVSKNIFDVDSYPLERIAMTTGGDAINEATIISRLGHRTALMSRIGKDAAGQFILDHCRKENIDIQSLKQDVSIDTSINVGLVTEDGERTFVTNRNGSLWKLNIDDVDFARFSQAKLLSLASIFNSPLLDGKALTEIFTQAKARQMIICADMIKPRLNETLDDICEALSYVDYLFPNFAEAKLLTGKETLDEIADCFLACGVKTVVIKTGKDGCFIKRGDMTMKVPAVAGITAIDTIGAGDNFASGFIAALLEGKNLRECARFANATAAISVLSVGATTGVKNRKLVEQLLEEYEGEGHHHHHH", "protein production": "not failed"}
{"sequence": "MSLDSALRSRIETLLHSNRVVLFMKGRPGMPQCGFSAKAAGILQALGVEYAHVNVLDDQEIREGIKRYGDWPTIPQLYIDGELIGGSDIVSQMYENGELSTLLGVAAPDLTPPSITITPTAVEMLKGTLANAPGSTLALSIDSRFQPTFELAPINTQAIAAEYNGLRVQFDLASARRAEGITIDWVDDIRGQGLVIDNPNAPQPIQELSPGDAAAQVDAGVLTLVDVRPADERAVASVAVPFRTMDGGERAVLEQLPKGTPLAFLCHHGGRSLQAAEHFRSLGFTSIYNIGGGIDAWSTQVDPGVPKY", "protein production": "failed"}
{"sequence": "MSLEAAGGIVWRWKAGSDIANDPAIASSKSAQEQLDSIEVCIVHRPKYDDWSWPKGKLEQNETHRHAAVREIGEETGSPVKLGPYLCEVEYPLSEEGKKTRHSHDCTADTKHTLYWMAQPISADDAEHLLDAFGPVHRADVGEINDIVWVSVREARKILSHSTDKDTLAVFVDRVQEGAATAQNLLIVRHAKAESRKSWKGTDANRPITPKGAAMAFALNRELACFNPTRLATSPWLRCQETLQVLSWQTERPMEHINTLTEDAFAEHPAVSWLAFREQITQTLNSRETTAICMHRPVIGGMYDHLRGLCARKQLAKQLIAKSPYMPTGTAMSLFIIDTPQGPSIIDIQKVSPIVYEGHHHHHH", "protein production": "not failed"}
{"sequence": "MSLEGIKQINFQSINVVENLEEAKEGIPTIIMFKTDTCPYCVEMQKELSYVSKEREGKFNIYYARLEEEKNIDLAYKYDANIVPTTVFLDKEGNKFYVHQGLMRKNNIETILNSLGVKEGHHHHHH", "protein production": "not failed"}
{"sequence": "MSLELARRLVEILLALALIQQSLEHLRGFRDERILFGARIVLAVLVLAGVAGPWPLVGLAGLSLLILHRFQGPYNGGSDRMGLLILWCLTLSSLAPTPILAELAFGYLGAQLTLSYFISGWVKVVNPDWRSGRALRDVFQFSAYPVAESLRGFAQRPGLLRAMSWGVMGFELAFPLTLLWPPALMVGLVVAGTFHLANACLFGLNRFFWTWLSAYPAILWLQGRVF", "protein production": "failed"}
{"sequence": "MSLETFHYIANQLSGIFNFNGEPLATALIILGLAILSIMILAGLIYGAIKVVKAVPNMPFKQFIIVMLMIAVFLVIVGVLIP", "protein production": "failed"}
{"sequence": "MSLETKTPNDAKNQVQTHERMKTSSEHVTPLDFNYPIHIVQAPQNHHVVGILTPRIQVSDNLKPYIDKFQDALINQIQTIFEKRGYQVLRFQDEKALNAQDKRKIFSVLDLKGWVGILEDLKMNLKDPNNPNLDTLVDQSSGSVWFNFYEPESNRVVHDFAVEVGTFQAMTYTYKHNNSGGLNSSNSIIHEYLEKNKEDAIHKILNRMYAVVMKKAVTELTKENIDKYREAIDRMKGFKSSMPQKKEGHHHHHH", "protein production": "not failed"}
{"sequence": "MSLFEAILIILVLIIISAVISSSEISLAGARKLKLHSLAKDGDIRAEKVMRLQEQPGRFITMVQIGLNMVAILGGVVGESAITPYLAKLLAQYSQAEWTESTASWLSFALVTSAFVLLADLMPKRIAMTYPEQVAVRTINIMLCLITIFKPLVLLFDSIANLLFRLFGISTVRQDNMTSEDIVAVVDAGAKAGILKAQEHYLIENVFEMQERRVTSTMTTRENIIFLDRKDNREQVLATLGEDPYSKVLICDNGLDKILGYIETHDLLTQYLKNDHVSLVDSRLLRKPVFIPDTLSLYEVLELFKSAGEDFAVIVNEYALVVGILTINDVMSIVMGELVSTEEEQIMRRNEDSWLIDGATPLEDVMRALNIHTFPRDENYETIGGFMMYMLRKIPKKTDFVLYDKYKFEIIDTENFRIDQLMVSFRKDV", "protein production": "failed"}
{"sequence": "MSLFGTTSGFGTSGTSMFGSATTDNHNPMKDIEVTSSPDDSIGCLSFSPPTLPGNFLIAGSWANDVRCWEVQDSGQTIPKAQQMHTGPVLDVCWSDDGSKVFTASCDKTAKMWDLSSNQAIQIAQHDAPVKTIHWIKAPNYSCVMTGSWDKTLKFWDTRSSNPMMVLQLPERCYCADVIYPMAVVATAERGLIVYQLENQPSEFRRIESPLKHQHRCVAIFKDKQNKPTGFALGSIEGRVAIHYINPPNPAKDNFTFKCHRSNGTNTSAPQDIYAVNGIAFHPVHGTLATVGSDGRFSFWDKDARTKLKTSEQLDQPISACCFNHNGNIFAYASSYDWSKGHEFYNPQKKNYIFLRNAAEELKPRNKK", "protein production": "failed"}
{"sequence": "MSLFPGDIEELARRIITDFTPLGLMVSTAESCTGGLIAGALTEIAGSSAVVDRGFVTYTNDAKRDMLGVGTETLTTFGAVSRQTALQMAHGALYRSRANFAVAVTGIAGPGGGSAEKPVGLVHLATKARNGNVLHHEMRYGDIGRTEIRLATVRTALEMLIALNQAGSV", "protein production": "not failed"}
{"sequence": "MSLGGNGREKDHASELRSIFSLKKIADAVNGYEEAKYVVFGIPFDNTSSYRRGSKYAPDSIRGAYVNLESYEYSYGIDLLASGMADLGDMEESEDVEYVIDTVESVVSAVMSDGKIPIMLGGEHSITVGAVRALPKDVDLVIVDAHSDFRSSYMGNKYNHACVTRRALDLLGEGRITSIGIRSVSREEFEDPDFRKVSFISSFDVKKNGIDKYIEEVDRKSRRVYISVDMDGIDPAYAPAVGTPEPFGLADTDVRRLIERLSYKAVGFDIVEFSPLYDNGNTSMLAAKLLQVFIASREKYYKEHIEGHHHHHH", "protein production": "not failed"}
